{
  "source": "the NTF2 design screens of Basanta et al. (2020)",
  "data": [
    {"assay": "protease stability score; higher = more stable; yeast display proteolysis, trypsin and chymotrypsin;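 note: relative to predicted unfolded state with 0 unfolded-like and 1 meaning tenfold more protease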", "values": [
      {"sequence": "SHEDELNEKIAKTFFKDLLTGDEDSITHLLDPNARVHIHVNGRHILIHGREWLEYLKKHARIRHFELHDMEIQGDKLIFDVEVVIEYGDKVIERRSEEILILFNGRVTSYHLIIK", "protease stability score": 1.2},
      {"sequence": "SDLDKLAIKIAKILVKNLETGNEKMLEHLLDPHVKLHIDGVTFIGREEVNKWVKHELDEMRSRWEVHDRRTQGEYAHTDSRMYLHINGKDIEIEVTIIFNVVNGRVTFIEHRIH", "protease stability score": 0.084},
      {"sequence": "SEEERDVKEVLKLIFEHFLTGDWDWLSEMMDPHARSDINGVERHGRDDLKEMYEAIIRKLGADHIRVDTVRVDLFDGRLIVEIHTRNHVGDKEFRVINIFIMRKINGRWHVESVLLHIE", "protease stability score": 1.56},
      {"sequence": "HEDHKFLNEFVELWLRAEHTGDEDWLEENADPNTRVEVNGKSIHGMEYELRHLHHVLDRFKNMTFDTTVTRIDQQGDKAKVKVEIRLDIDGKDIRLEVDLIITKINGRWIVREIRYK", "protease stability score": 1.22},
      {"sequence": "SEEEEEARKFSEDLIRSTRTGDEKAWNDLLDPDVRIDINGKTHHGREEFLKLLQHLRERADHWRIELKHTDVYDGKVHHDIHVQISVGDKTFHHRIHLIVVKIDGKWLLKRVDVR", "protease stability score": 2.16},
      {"sequence": "DEDDELYKRVFELIEHDNHTGNEKSHLELADPHARLLYDGKLVIGRELLLEWMRRLGIDVIRHMDFKRFRIQGDKIEMDVRVHGEVNGRHIDTDTHLIARKVNGRWLLEEIRIK", "protease stability score": 0.937},
      {"sequence": "DHDEKWAREVIRLLIEDIVTGDEESLSKLFDPHVRIEIGDKEHIGMEIALKLMIELWERLGVKHIHFHMSDIRVYDGRLDVDSRLHHVVNGRKHETKVRIFIRKINGRWVIESLVIH", "protease stability score": 2.25},
      {"sequence": "TERHEHVLHLLNLFLEEWLTGDWDKFFRLADPNVKYFINGQDIHGRETIRENHEQKWRELRIREIRVHSVDVVGDKAHADITENLEVNGREIRTRSHLDIVVVNGRVHHVRMHVD", "protease stability score": 0.544},
      {"sequence": "SEDHHLMEHAIEIMLEMIRTGDEQKYLNLVDPHARLEIDGREHHGWKRMREVFRWLGVDHSDVRHVNVQGEKVEVDTIIEVGDKRIEVIVIVRKINGRWVIEEVRVH", "protease stability score": 0.549},
      {"sequence": "DEDEERVREFFELFFKALFTGDEEELKRLLDPHVKLIINGREFVGREQMTRLLNEIRVSWTELRIRRIERQGDKVIFDAEVHVERHQGDYHEQKTIKVILYMRKVDGRWLLESIEIR", "protease stability score": 2.38},
      {"sequence": "SEDEEFAEKYLKEWVERVRTGDEDHLWKLLDPDPRIRIDGKEIIGREIAVKHMSEIRPTSIRLTSFHSQGDKINVDGETDGEFNGVRQRQRVIYIILKVDGRWLLHSVEFK", "protease stability score": 1.05},
      {"sequence": "TEDERILKELAHLLLLLWKTGDENIWRELADPNVRVIFLIGDKEEHHHGRDMFIKLRHDYGVDHMELRRVDVQGDKVRFEGDLWVDGRIHRVHINFSVINGKVHQIKIDFS", "protease stability score": 2.49},
      {"sequence": "SEDEEDFERAMKLLMHDIRTGNEESLNRLFDPNVKININGKELWGREKWIEFLERVDHLDVHDMKIRHLDIQGEKVRAEVHIDRRIKIGDKETRVKVDIRMIAVKVNGRWLLREISVE", "protease stability score": 2.1},
      {"sequence": "NEWQEILLRISEKILKDLFTGNEEVWEKLVDPDAQVHINGKEVHGREEALHFLKELKDELRVEHLFIRDVKLQGDKVSLTSESRGNVNGVRRDMKVEIIVIVINGRVKHEKFIII", "protease stability score": 1.37},
      {"sequence": "SEDEEIAKEASEVFSDVLLTGNEDLFKEMIDPNVRVIVDGQDHIGRERALEFLIIWLERRGVEFKRVRVTRHRVIDGRVQMHYEVDSVVNGRRTNDSMELHSDKVNGRWIIRIIKFR", "protease stability score": 2.38},
      {"sequence": "DEDEHDSEIAVKLFVRHMETGDEDVLREYADPRTKILVNGRETHGWETYVKHMQETINKLGVKHTHFELKDVEVQGEKIIAHVRIELNFENHHTTINMILIIHKVDGRWHLKKMKIK", "protease stability score": 0.871},
      {"sequence": "DELDEELHKLFEKYLRSHLTGDFHSLERLLDPNARLIWIVDGKMINIHGREDISRFLREWEEEARHHHHELKEVDTQGNYFHSRMHEDGHINGVRRKIHVTHNIVMIDGKLESITHIII", "protease stability score": 1.08},
      {"sequence": "SEEHEMLKRIMELVIHLFLTGNEDWLRELIDPDTRLHINGVDNHGREEAIRWLHEYNKHLRIHTMEIKRLDVVNGQAHSHVHHEWTINGKQHETEMELIVVVVNGKVKSQELRIK", "protease stability score": 0.629},
      {"sequence": "REEEEHARRLVEMYFHALLTGDEDLLKSLLDPNVKLQIGDKVHVGREELIRSLRELWDKLGIDHITLEEYRIEIQGNKIRLKLYMHLHVNGRLLQVTTDILVDKVDGRWVIQEIRVHEA", "protease stability score": 1.91},
      {"sequence": "TEEHDEAHEVLKIFLEIHETGDEDDMKRLADPHARLNIGDKEYHGWKHFIEWLHKIKNVTSEIHHVHVYNGKVKTEVDLHVNGQDVKIILIMEKINGRWILQSVEVR", "protease stability score": 1.29},
      {"sequence": "SERHDHAEHVLRLWEHFWKTGDETNLSRLLDPSVRWVIGDKVYHGMETVSHNLSRHYLRADHVEESVHRLNFQGNKVEMDGRIILNVNGVQIDKRSHIELISFNGKIKELDLHIT", "protease stability score": 0.371},
      {"sequence": "SEEDKHASKLADLVVEMWMTGDEEKLRHLADPDVKLHIEFNGVNRNHHGRDVMIEVMQRIREEIRIHDIKIHNWHTINGRWHIDSIVDGKFNGRRHETRTEVILEVIDGRIKVISFIFQ", "protease stability score": 1.07},
      {"sequence": "SEDEEFSKEATETILRVIHTGDWDMIKDLADPNARIHVGNYNSWGREEVMRVIRELFEVLGIKHLIFTHVEIDVIDGVVHSIIHGYEEVGDKTIETHIDIVSKKIDGRWRLQRIEIHHR", "protease stability score": 1.29},
      {"sequence": "DEDTHKLDKHVKEVLTAWETGDEEMLLRLIDPDARITIGDKEVIGMEEALKHWKEIRIKHLELTDFKLVDGQLDSKVQVHSEVNGRRFETTIRIVLHKINGKWRIRSMTFI", "protease stability score": 1.34},
      {"sequence": "DEIEETIKHLMEEWETSMQTGDEDRIKELLDPHARLEIGEWEFIGRERVAHFLSRADHSEYRIRRIRMIGDKIDIRLEVRLHVNGREIRTETHLIILKINGRWFFKSTHIT", "protease stability score": 1.62},
      {"sequence": "DEEDHLMKHASEMFLHVMKTGDEDTLRRLVDPHVRLDWNGRKWHGRETVTRIIVENIHELGIDHIHLNHFEIYNGQADTNIEVRYNGKREEYHIHMHKVNGRWTVKSIHVTEE", "protease stability score": 1.5},
      {"sequence": "DTEERLLHEMLRYLLEWFITGDEELFARLADPNTRTNVNGRHFHGREEMARLLEKWWRDFGVKHVHIEHTRVQGDYLHIDTRLHIGDKDLHVHFKLLVIDGRIRSLEIIIR", "protease stability score": 0.689},
      {"sequence": "REEEELLKKLADHWWENVRTGDERRMRELFDPNTQFVIEVGDKKFTRHGRDELVHSLEHARIHDFHIKDQRPQGDFIEVEGEIDGEIDGRRFRTDVRVWIVIVNGRLKQIHIHVG", "protease stability score": 1.15},
      {"sequence": "DEDRRDAEYARDIWTETLETGDEDLLHELMDPHVRIEIGDKETHGRENYVKKFIRMGVRLKHRNDKHVTIVNGRVHLFGEFHVIINGRHHDLRVEIVIEKVNGRWVVKSIHVH", "protease stability score": 0.688},
      {"sequence": "SEDHRMMKEALDKLIDSIETGDPELYLRLFDPDTQTRIGDKHIHGWEEIEKIFRKILERFDHFEHMHLEHFDIQGNYIHLDIRLWGKVNGKRITLNIRVVVVKYNGRWTIREESLT", "protease stability score": 1.72},
      {"sequence": "SESEEFAREFLEHMEKFLRTGNWEEMKRNADPNVLLRIGDKHLHGREEYEEWLRKFLEHMRIREVEVKDLKIVGDKIFLIIRIRIHFDGREDQLDTILVMQKVDGRWIVTEIRVR", "protease stability score": 1.21},
      {"sequence": "DEERELAKWAEEMLRRRFETGNERFWEELADPNTRSDINGVELIGRETVVHFLREEQRHMGVDHTDVKHTNVELQGDKVIVRMDVELHFDGVTVRSTLSYTSIKFNGRWILHSIEHHIH", "protease stability score": 1.13},
      {"sequence": "DEETQNVRTILEEFVHDFETGDERLMHRYLDPNVRIDWNGRDYHGRETMFQMIRELSDKIKNIRIRIEHIDIINGVIIIHGDLHYNGKDVKTTLYFLKVNGRWLITRLEYK", "protease stability score": 1.39},
      {"sequence": "SEEHHHYSELMHQLTEWMLTGNFEEWARYADPNTRARIDIDGRRLEVHGREEMMRVLKEHRKLMGVDHIEVRDRHVFNGRNELIFILHQGDKERHSHITIVVINGQIKEVDIILR", "protease stability score": 1.61},
      {"sequence": "DEDEEATRYALELMKKMHETGDEDSIKHLMDPHTKMDVNGVIFHGREAFHVWLNRFDVIRRFNIKHMKSVGDFLHIEGELDSEVNGKRIVTEVRIVSFKFNGRWHLSSTKIL", "protease stability score": 1.53},
      {"sequence": "DEDEREMERWFQEILEDLRTGDFRSISRMVDPHAKVDVNGQERHGREQVENLIRRFKNATIHITHVDLDVVNGKLVVRIDTRLHVDGQTRKTEIIVISNKVNGRWFMESLSFKIE", "protease stability score": 0.904},
      {"sequence": "DEERRSSEEYVRTLHDIIRTGDEDRLVRLADPHARLEVGEFHFHGREELEHFWRKIIEHFGHDKIEVRIESVEVQGEKIVNVGKLSVNGQEREIIFIALKYNGRWITRSIHLH", "protease stability score": 1.59},
      {"sequence": "DHEERIISEQLKIELESTATGDESTLEELVDPTTKININGKHLHGRESILKLLVEYARRADHIEIRPEHVEVYGNKLIIHGEIRIEVGDKRHSTKVLLILRKVNGRWRLTEEKWD", "protease stability score": 1.65},
      {"sequence": "DHHEELRHWFLEIYRRIMITGDEKELEKLIDPHAKLRINGREHVGMEYIQRIFDLLRHEIRFKDMDIREYHLVDGQIDDHSVLTLHINGKEVTRETRIVNRKVNGRWKIEVESIH", "protease stability score": 0.622},
      {"sequence": "TEEEEEMRKMSELYIRAILTGDEDEYTKLADPDDRVNFNGRKLVGRKEVKEWLRKLRDKFKNITLHHFEIKELRVYNGRIRMIAESEVNIGDKVWRFHLHFIFEKFDGVWVLTEESTE", "protease stability score": 1.64},
      {"sequence": "SEDHEFVRFIIEQLLHDLFTGDWRRLLKLFDPNAMIEVGDKTLHGMENIYRWHEEHYERLGLSNVEIHILIRKIHIQGDKVHIDGLLRLHFNGRDTEIHVRLHALKIDGKWQLTRVQHD", "protease stability score": 1.89},
      {"sequence": "SDEDHEAHRMMRLFFEAQRTGDEHLVRKLVDPDVRTFYGEKHMHGRRHHVEILLEIRIHRLTITELRVYGEKVRMDIRVDEQIGDKRREVRFELHLVVIDGVLKVVSIDME", "protease stability score": 0.92},
      {"sequence": "SEEEEWMEEFRERWERNFMTGDEDAMRELADPNVRIDIGEWDVHGREHLAELLKRHLDTLGINHVEFDHSTVIDGVIHIHMTINVNGKRIYSEVRLLVVNGKLKHSHYDIK", "protease stability score": 1.01},
      {"sequence": "DEEDRQAEHIARLVIEELLTGDEESFSHLVDPDTRSEFDGKEFIGREWFNKWLRRILEEIRFHINPTEIRYQGDKAIVHGRLHLHYNGQDVHITVHYKLIVINGRHKRIKEERS", "protease stability score": 1.3},
      {"sequence": "DEDSEVLSRILLHLTHHFSTGDFKEVTEMFDPHARAFVGDKELVGMELLRKFLHDLTKRLGVDHHDLRDDHIEIQGDKLRSEGKLRIDVNGREIKHHVHWILEKIDGRWVIREFRIV", "protease stability score": 1.23},
      {"sequence": "DEEKEFAEIYLRRLEELYNTGDEEIEHDLLDPHVRINIGNKHIHGREQYIEHWRKLLIILGIERFTIHVRIKDVRIQGEFAHLDGRLELRVGDKRRTLDVELIILKVNGRWVNKHIHFL", "protease stability score": 0.888},
      {"sequence": "DETENSLRTMLHRLLDSIRTGDFRTVDDLADPHVKIDVGDKHIHGREIYRKIVLQADHVESRFHLHDIHNIGNWAHVDGRLINHEVVDGQKIDLDLRIEIIVTKIDGKWTIESVRFE", "protease stability score": 1.46},
      {"sequence": "DEEEEEHRIAHELFIKTSQTGDEQESTEMMDPNVRVTIGNKHFVGREEVSKFFKEIRIKRVRFKRIRHINGKAEMEMHMHGEVNGRERELEIHVYIFKINGRWVIEEVRFH", "protease stability score": 1.64},
      {"sequence": "TEEEEEFHRMFELEVRAWRTGDEETIRRLFDPHARIDFNGRDVIGRDEFIKRFQELGVEVHDLKIHNFRIVGDKVHWDIRLDGTFNGKRTKLEIHLYAEKYDGQWFNKTEYYI", "protease stability score": 1.36},
      {"sequence": "DERHEDIKKFMELVLRLAKTGDEDHFSNMVDPHARLEIGDKHYIGRELVSTLFHEIRLHDMKIHNIISYGDKVKADVRLDIEFDGRRWNINTLLIIHKVNGQWLLESERRH", "protease stability score": 1.14}
    ]}
  ]
}
